Source: PMC4372372

Target: rPmMasSPH1 (His-tagged recombinant C-terminal SP-like domain of PmMasSPH1) (Penaeus monodon)

“rPmPPAE2 (His-tagged recombinant SP domain of PmPPAE2) (domain or fragment)” showed a PGN-triggered PO activity of shrimp hemolymph in vitro (L-DOPA, change of A490 at 5 min), with 0.25 ug PGN and 1 uM of each recombinant protein, relative to hemolymph alone of 102%.
